For this experiment, the target named is Ty1c CA(F323S) (S. cerevisiae). In words: SEC-MALS; individual proteins, 12.5-200 µM, Superdex INCREASE 200 10/300 GL at 298 K, 50 mM Tris-HCl, 800 mM NaCl, 0.5 mM TCEP, 3 mM NaN3, pH 8.5. (Size exclusion chromatography separates by hydrodynamic size, large species first.)

Our source for the stoichiometry N values is PMC12530519.

On to Ty1c CA(F323S) (domain or fragment), for which the stoichiometry N (usually a count of units in the complex or per binding partner) is 2.
